# Reference: the supplement of paper PMC9170038
# Tested on: K4 kissing-loop RNA reporter
# Assay: apparent KD of K4 kissing-loop reporter; higher = weaker reporter binding
# Conditions: Eterna round: R107
# Description: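 RNA-MaP round R107: designed RNA switches with theophylline, tryptophan, arginine or FMN aptamers are transcribed on-chip within common flanks. They are titrated with a labelled K4 kissing-loop RNA reporter in RNA-MaP buffer (100 mM Tris pH 7.5, 80 mM KCl, 4 mM MgCl2), without ligand or with the indicated ligand. Median apparent KD per design.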
# [1] = input ligand: theophylline 20 uM
# [2] = input ligand: tryptophan 2.4 mM
# 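Also: bound reporter read as fluorescence of individual clusters on recovered sequencing chips by microscopy, with normalized cluster intensities fitted with a binding model.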
Sequence,apparent KD of K4 kissing-loop reporter (input ligand: FMN 200 uM),apparent KD of K4 kissing-loop reporter (input ligand: arginine 13.2 mM),apparent KD of K4 kissing-loop reporter (input ligand: none),apparent KD of K4 kissing-loop reporter [1],apparent KD of K4 kissing-loop reporter [2]
AGAUUCGACACGGCCGCCACUUCCAGUGGCUGGUGUCAUGGUGCGCGUGAGUGAUGUUUAUGUGGAAGGACCGGGUGUUGAGUCU [KL-XTryp-B1 #analogue],938 nM,554 nM,917 nM,606 nM,1190 nM
AGCAAUAUCACGGCCGCCACUGAAUAUUGUUUUUAUAUUUAGAAAUCUUGCCAGUGAUGUUGGUUCAGGACCGGGUGAGUUAAUA [JR_SSTryptoB_Sub005],435 nM,430 nM,466 nM,450 nM,401 nM
AGCAAUAUCACGGCCGCCACUGAAUAUUGUUUUUAUAUUUAUAAAUCUUGCCAGUGAUGUUGGUUCAGGACCGGGUGAGUUAAUA [JR_SSTryptoB_Sub004],573 nM,603 nM,783 nM,665 nM,412 nM
AGCCGAAAGGCGAGUGCUGUCACUCCGGAAGGAGCGGCGAAAACGCCAGGUAGGUCGCCGGAGUGAUGUUCCGGUGCAGCACUCA [Omei KL Arginine A Exc B v2],603 nM,410 nM,932 nM,521 nM,492 nM
AGCGGCCAGUCGGCCGCCACUCCGGGCAGUGAUGUUGCGAAGUGUCUACUAGAGUGAUGUUCUAAGAGGACCGGGACUGACGUAU [Exclusion Tryptophan B Gf 11],434 nM,394 nM,534 nM,476 nM,332 nM
AGCGUCUGAAGAGGAUAUGACCAGUGAUGUUGGUUACUACCUCAAAUUAGUGUCUCGUCAAAAUCGUCAGAAGGCUUCGACGAGC [#09 K4 FMN B Exclusion],122 nM,96.2 nM,95.7 nM,92.8 nM,91.2 nM
AGGAGCGUGCGAUGCAAAUCGCACGCUCCUCGAGGACCGGUACGGCCGCCACUCGCUCGCGCCGAGUGAUGUUCGGCCGGCGAAC [#2 Same State - Tryptophan A Attempt #10 (HarryS)],266 nM,236 nM,265 nM,289 nM,452 nM
AGGCACGAGCAAGGAUAUUGAGUAGAGUGAUGUUCUGCCUGGGUUGGCUCGAAAGAGCCUUCUCAGCGAGAAGGUGCUCGUGCCU [#2 Same State - FMN A Attempt #22 (HarryS)],290 nM,603 nM,616 nM,367 nM,719 nM
AGGGCACUGGCGGCCGCCACUUUUCGUGCGAACCAAAGCUAGUGAUGUUGGCUCCCUAGUUGCAAAAGGACCGGGCCGUUCAUCU [theeternabot_sameState_KL_Trp_B_37],315 nM,195 nM,302 nM,296 nM,211 nM
AGGUUUUGAUUAGGAUAUGCACUGACGACGAGAAUAUAGUGAUGUUAUAUACUACGAAUUAGUAGAGUAGAAGGGAUUGAGGUUU [SSFMNB.Y],344 nM,265 nM,330 nM,322 nM,245 nM
AGGUUUUGAUUAGGAUAUGCACUGACGAUGAGAAUAUAGUGAUGUUAUAUACUACGAAUUAGUAGAGUAGAAGGGAUUGAGGUUU [SSFMNB.Z],568 nM,338 nM,414 nM,459 nM,335 nM
AGUAAUAUCACGGCCGCCACUGAUUAUUGUUUUUAUAGUUAUAAAUCUUGCCAGUGAUGUUGGUUCAGGACCGGGUGAGUUAAUA [JR_SSTryptoB_Sub001],429 nM,469 nM,584 nM,727 nM,299 nM
AGUCCACUCUAAAGAGUGGACCUAAGGGAUACCAGUGAUGUUGGUCACCCUUGGCAGCCCGCUGUCAUCGAUAAAGAUGGCAGGA,133 nM,113 nM,129 nM,127 nM,125 nM
AGUGAUAUAUGAGGAUAUGGGAUUGUUAAUGAGUUAGUUUUAGUGUUGUUUGGUUAGUGAUGUUAUUUAGAAGGCGUGAGUGAUG [kuktrmullin],93.6 nM,87.4 nM,96 nM,116 nM,70.4 nM
AGUGUUGUAUGGCGGUUUGUCACUUAGGAUCAGGAUAUAUAAACAAAUAGAAGGGAUGGCGGAGUGAUGUUCCGCCGGCCGCCAU [FMN A Exl V7],132 nM,128 nM,121 nM,126 nM,121 nM
AGUGUUUGGUUAGAUACCAGCCGUCUGUGGAUAAUCCUCAGACCGCCAGUGAUGUUGGCAGGCCCUUGGCAGCUAACAGGACAGA [Ersoed],198 nM,213 nM,275 nM,233 nM,224 nM
AGUUAUGUAUCAGGAUAUUAGUGAUGUUUGUUUAUGUUAGUGAUGUUGAUAUUUGUUUUAUGUAUUUAAGAAGGGAUUGAGAUGU [ccgcmullin],57.1 nM,20.7 nM,48 nM,30.6 nM,46.6 nM
AUAAUAUGAGUGAUGUUCAUGAAACCUGAAGGAGCGGACGAAAGUCCAGGUAGGUCGCAGGACUCCUUCAACAUGGGAGAGGGAG [KL-SSArg-A8 #analogue],153 nM,180 nM,166 nM,194 nM,150 nM
AUAGCUGAUAGCAGUGAUGUUGCUUCAGAUACCAGACGAGAUCAUGUCCCUUGGCAGCUGACAUGGCAAGUGCUAGGUUAGAUGA [#11 K4 Theophylline A Exclusion],140 nM,114 nM,125 nM,120 nM,130 nM
AUAGGAUUGCGAGGAUAUCCUUCCCACGUCGAAGUACCGUGCUUGAUGGAGUGAUGUUCGAUCAGAGGAGAAGGUGCGGUUUUGU [Same State FMN B GF24],292 nM,593 nM,942 nM,732 nM,944 nM
AUGGGUCCACGAAGGAGCGCCGUGCAGUGAUGUUGCAGUUAGAUCCAGUGAUGUUUGGGCCGGCAGGUAGGUCGCGUGGAUUUAU [Exclusion Arginine B GF 22],249 nM,199 nM,249 nM,243 nM,222 nM
AUGUAUGAAUUAGGAUAUCGUUAGCCUAUCAUAUAUAUGAUAAAUGGAUAUGUCGUAGUGAUGUUACGAGAAGGAGUGUGGAGUA [KL-XFMN-B7],55.8 nM,62.9 nM,55.4 nM,82.7 nM,39 nM

Sequence,apparent KD of K4 kissing-loop reporter (input ligand: FMN 200 uM),apparent KD of K4 kissing-loop reporter (input ligand: arginine 13.2 mM),apparent KD of K4 kissing-loop reporter (input ligand: none),apparent KD of K4 kissing-loop reporter [1],apparent KD of K4 kissing-loop reporter [2]
AUGUCUUAUAAACUCAUGGUUUCGAUCGAUACCAGUAGCGAGAGUUACCCUUGGCAGCGACAUGAGUGAUGUUCAUGUACGAAGA [KL-XTheoA5],109 nM,98.7 nM,103 nM,106 nM,90 nM
AUUAAUUUCAGAGGAUAUCGUUAUUUUUUUAAGUAUAAUCUAUUAUGCAGUGAUGUUGCUAUUAAUCGAGAAGGCUGAUUUAUAA [JR_ExcFMNB_Sub001],114 nM,141 nM,79.5 nM,134 nM,78.5 nM
AUUACAUCUGAAAAGCUAGUGAUGUUAGCUCGAGGACCGGUACGGCCGCCACUCGCAUAGCGAGGCCAAGUCGCGGUUAACGGAG [theeternabot_exclusion_KL_Trp_A_4],96.7 nM,86.7 nM,97.2 nM,89.1 nM,83.3 nM
AUUAUAUAGGCGGCCGCCACUAGUGAUGUUAGUGAUGUCAUAAUAUAAUGAUAAAUUAUAUUGCGUAGGACCGGGCCUAAAUAUU [#15 K4 Tryptophan B Exclusion],108 nM,62.3 nM,86.3 nM,100 nM,111 nM
AUUAUAUUGUGAAGGAGCGCGCAUAGUAGUGAUGUUACUAUGACAUAUCUUAUUUAAUUCUCGCAGGUAGGUCGCACAUUAUAUA [JR_Nu_ExcArginiB_Sub026],92.5 nM,64.8 nM,79.7 nM,65.5 nM,71.8 nM
AUUCCCACUUAAGGAUAUCAAGGAGUGAUGUUCCAAAUGGUCCACGUCGCGGCUCUCCGGGCACAAUGAGAAGGUAAAGCUGGGU [theeternabot_exclusion_KL_FMN_B_43],278 nM,275 nM,276 nM,370 nM,210 nM
AUUGUACAGGGAAGGAGCGUCGACCAGUGAUGUUGGAGUUAAAUACCAGUGAUGUUGGUUAGGCAGGUAGGUCGCCCUCAAGUAG [#10 K4 Arginine B Exclusion],180 nM,126 nM,141 nM,219 nM,118 nM
AUUUAAUUAACUGAUACCAGACUUUAAGUAAUUAUUAAAACUAGUGAUGUUAGUUUAUCUGUCCCUUGGCAGCAGUUUCUACUUA [JR_Nu_ExcTheophyB_Sub020],144 nM,136 nM,158 nM,135 nM,127 nM
AUUUAAUUAACUGAUACCAGACUUUAUGUAUUUAUUAAAACUAGUGAUGUUAGUUUAUCUGUCCCUUGGCAGCAGUUUCUACUUA [JR_Nu_ExcTheophyB_Sub021],93.5 nM,113 nM,105 nM,105 nM,83.4 nM
AUUUAGACGAGUGAUGUUCGUGAUUUUUCAGAGGAUAUGCGUAAUAGCAGAAGGCUGUAUUUAUAUAUAUUUUGAUUUUUUUAAA [JR_ExcFMNA_Sub009],69.6 nM,81.6 nM,59.5 nM,82.8 nM,62.3 nM
AUUUAGACGAGUGAUGUUCGUGUUUUUUCAGAGGAUAUGCGUAAUUGCAGAAGGCUGUAUUUAUAUAUGUUUUGUUUUUUUAAAA [JR_ExcFMNA_Sub008],80.4 nM,92.1 nM,75.4 nM,93.6 nM,69.3 nM
AUUUUGUUGUCAGGAUAUUAGUAUGGUUUUGGUUUGUUAGUGAUGUUGAUGUUUUGUUUAUGUAUUUAAGAAGGGAUUUAGCGGU [aqaawgumullin],474 nM,352 nM,400 nM,401 nM,343 nM
AUUUUUUACAGAAGGAGCGUGUUUUAAUAAUCAUGGUGCUUAGCGAGUGAUGUUCGCUUUACACAGGUAGGUCGCUGUUUAUUUA [JR_Nu_ExcArginiB_Sub030],120 nM,113 nM,127 nM,112 nM,112 nM
AUUUUUUUAUCAGGAUAUUAGUGAUGGUUGUUUUUGUUAGUGAUGUUGAUAUUUGUUUUAUGUAUUUAAGAAGGGAUUGAGAUGU [zbbzmullin],68.1 nM,24.7 nM,42.9 nM,31.7 nM,49.7 nM
AUUUUUUUAUCAGGAUAUUAGUGUUGGUUUGUUUUGUUAGUGAUGUUGAUAUUUGUUUUAUGUAUUUAAGAAGGGAUUGAGAUGU [huupullin],283 nM,254 nM,278 nM,395 nM,211 nM
CAACGAGUGAUGGUCGUUGACGGCCAUCCCGAGGAUAUGGGAUUUUCCAGAAGGCGGGAUCGCCCGGAGUGAUGUUCCGUGAUUU [Same State FMN A GF 15],73.3 nM,228 nM,150 nM,221 nM,116 nM
CAAGCUCUCCAAGGAUAUGAUAUCGACCCGUCUUAGUGAUGUUAAGGCUGUAGAAAUUCACAUUGAUCAGAAGGUGGUACCCUCC [theeternabot_sameState_KL_FMN_B_8],317 nM,194 nM,256 nM,351 nM,239 nM
CACCAUGAAUUCUCUAGGAGUGAUGUUUUUCGAGGACCGGUACGGCCGCCACUCGGACGAGGACCCUGGGAGCGGCGAAGCGGCU [nigmullin],235 nM,104 nM,238 nM,246 nM,150 nM
"CACGAUGAAUUCUCUAGGAGUGAUGUUUUUCGAGGACCGGUACGGCCGCCACUCGGACGACGAGCGUGGUAGCGGCCUGAAGACU [,omullin]",743 nM,225 nM,468 nM,680 nM,380 nM
CAGAUGUAGGCGGCCGCCACUCUCAUUACCGUACGCAAGUAUGAUUAGAAGUGAUGUUUCUCGGUGAGGACCGGGCCAUUCCCGA [theeternabot_sameState_KL_Trp_B_27],690 nM,551 nM,670 nM,672 nM,545 nM
CAUACGCAUGGAGGAUAUGAGAUUUCUCAUGUCAUUUAAUAUUCUCAGUGAUGUUGAGAUUUUGGCUCAGAAGGCCAUGUGUAUG [Ex FMN B 19],176 nM,249 nM,281 nM,297 nM,273 nM
